Bridge positions count the residues as written; N and C are the ends. Square brackets hold non-standard residues; d marks the D form. Peptide text beside a SMILES is read from it. * marks the point of attachment. X1 = O=C(O)CN1CCN(CC(=O)O)CCN(C(CCC(=O)NCCNC(=O)CCOCCOCCOCCOCCOCCC(=O)NCCSc2c(F)c(F)c(-c3c(F)c(F)c(*)c(F)c3F)c(F)c2F)C(=O)O)CC1
Tests used:
physchem = details: pH 7.4
in vivo [1] = details: BALB/c, mouse, iv, total radioactivity, Ex vivo biodistribution
Description: page 9: mice under 0.8-1.5% isoflurane in oxygen anaesthesia and warmed to 37 °C for the duration of the experiment. Mice were administered [68Ga]Ga-5 (∼2-3 μg, ∼0.8-1.5 MBq) in 200 μL of PBS via intravenous tail injection. Dynamic PET scans were acquired for up to 1 h post injection, followed by a CT scan for anatomical visualisation (480 projections; helical acquisition; 55 kVp; 600 ms exposure time). PET/CT datasets were reconstructed using a Monte Carlo-based full-3D iterative algorithm (TeraTomo, Mediso) with 4 iterations, 6 subsets, and 0.4 mm isotropic voxel size. Images were co-registered and analysed using VivoQuant v.3.0 (Invicro). Regions of interest (ROIs) were delineated for PET activity quantification in specific organs. Uptake in each ROI was expressed as a percentage of injected dose per gram of tissue (% ID/g). Biodistribution studies: Following PET/CT imaging study, mice (n=4/group, one mouse from each group was not subjected to PET/CT imaging) were culled by cervical dislocation, organs were dissected, weighed, and gamma- counted along with standards prepared from the corresponding sample of injected radiolabelled conjugates. Conjugate uptake was calculated as a percentage of injected dose per gram (% ID/g) of tissue.

[2] = type: in vitro ADME, human
Description: (§1) Stability of [18F]AlF-4: [18F]AlF-4 (3-5 MBq) was incubated at 37 °C in RPMI media (500 µL). Aliquots of the
(§2) solutions were sampled at 1, 2, 3, 4 and 5 h and diluted in H 2O for C18 RP-HPLC analysis. The diluted solutions
(§3) were centrifuged at 13,000 g for 5 min prior to analysis.
(§4) Stability of [68Ga]Ga-5: A sample of [68Ga]Ga-5 was added to serum (with or without 5 mM reduced glutathione),
(§5) in a ratio of one part radiolabelled solution to four parts of serum by volume and incubated at 37 °C. Aliquots
(§6) were taken for SE-HPLC analysis at t = 1 h, 2 h, 3 h, 4 h and 5 h.
(§7) Cell culture: The rat cancer cell line AR42J (cultured in RPMI -1640) was purchased from American Type Culture
(§8) Collection. Growth media were supplemented with 10 % foetal bovine serum (FBS), 100 units/mL penicillin , 100
(§9) µg/mL streptomycin, and 2 mM ʟ-glutamine. Cell lines were harvested twice weekly using a formulation of 0.25
(§10) % trypsin/0.53 mM EDTA in Phosphate Buffered Salt (PBS) Solution without calcium and magnesium, which was
then neutralised with the appropriate medium containing FBS. Cells were maintaine d in a humidified chamber
containing 5 % CO2 at 37 °C.
SSTR2 in vitro binding studies: [68Ga]Ga-5 was prepared as per above. The radioconjugate was then diluted with […]
(§11) by PBS wash (500 μL x 1). The radioactivity associated with each fraction were then counted using a gamma […]

in vivo [3] = details: mouse
Description: as §1, §2, §3, §4, §5, §6, §7, §8, §9, §10
then neutralised with the appropriate medium containing FBS. […]
as §11
isotropic voxel size. Images were co-registered and analysed using VivoQuant v.3.0 (Invicro). […]
(ROIs) were delineated for PET activity quantification in specific organs. Uptake in each ROI was expressed as a […]

`C[C@@H](O)[C@H](NC(=O)[C@@H]1CSSC[C@H](NC(=O)[C@@H](Cc2ccccc2)NC(=O)[C@H](Cc2ccccc2)NC(=O)[C@@H]2CCCN2C(=O)[C@H](CSc2c(F)c(F)c(-c3c(F)c(F)c(SCCNC(=O)CCOCCOCCOCCOCCOCCC(=O)NCCNC(=O)CCC(C(=O)O)N4CCN(CC(=O)O)CCN(CC(=O)O)CC4)c(F)c3F)c(F)c2F)NC(=O)[C@@H](N)Cc2ccccc2)C(=O)N[C@@H](Cc2ccc(O)cc2)C(=O)N[C@H](Cc2c[nH]c3ccccc23)C(=O)N[C@@H](CCCCN)C(=O)N[C@@H]([C@@H](C)O)C(=O)N1)C(=O)O` (stereo partly shown) [[68Ga]Ga-5, [^68Ga]Ga-NODAGA-FCPF-TATE, metal not drawn] (H-FC(X1)PF[dF]CY[dW]KTCT-OH; disulfide 6-11) gave a logD (physchem) of -0.4 ± 0.03, a tissue uptake at 1 h (in vivo [1]; Bone) of 0.95 %ID/g and a tissue uptake at 1 h (in vivo [1]; Brain) of 1.29 %ID/g. It also gave a tissue uptake at 1 h (in vivo [1]; Pituitary gland) of 6.04 %ID/g, a tissue uptake at 1 h (in vivo [1]; female, Adrenal glands) of 6.45 %ID/g and a tissue uptake at 1 h (in vivo [1]; female, Blood) of 27.2 %ID/g. For the same compound, the tissue uptake at 1 h (in vivo [1]; female, Heart) was 7.89 %ID/g, the tissue uptake at 1 h (in vivo [1]; female, Kidneys) was 9.57 %ID/g and the tissue uptake at 1 h (in vivo [1]; female, Liver) was 54.6 %ID/g. It also gave a tissue uptake at 1 h (in vivo [1]; female, Lower GI) of 2.76 %ID/g, a tissue uptake at 1 h (in vivo [1]; female, Lungs) of 10.6 %ID/g and a tissue uptake at 1 h (in vivo [1]; female, Muscle) of 0.69 %ID/g. The tissue uptake at 1 h (in vivo [1]; female, Pancreas) was 3.49 %ID/g, the tissue uptake at 1 h (in vivo [1]; female, Spleen) was 20.8 %ID/g and the tissue uptake at 1 h (in vivo [1]; female, Stomach) was 2.17 %ID/g. For the same compound, the tissue uptake at 1 h (in vivo [1]; female, Upper GI) was 5.64 %ID/g, the “dissociation of the radiotracer in human serum” value [2] was 2% and the tissue uptake at 1 h (in vivo [3]; female, BALB/c, iv, total radioactivity, PET 68Ga radioactivity remaining in circulation) was 13.8 ± 1.61 %ID/g. For the same compound, the “route of clearance from the blood pool” value (in vivo [3]) was “predominantly hepatically”.
